The values that follow come from PMC9934533.

As usually defined, the stoichiometry N is the number of molecules, sites or subunits per partner or assembly.

For the test, the target named is hybrid aspen (poplar) cellulose synthase isoform-8 (CesA8) (hybrid aspen (poplar)). Put plainly: cryo-EM structure.

“hybrid aspen (poplar) cellulose synthase isoform-8 (CesA8) (enzyme)” yielded a stoichiometry N of 3.
